Experiment [1] deals with T1, full length murine ALCAM1-583 (Mus musculus, UniProt Q61490).
T1 construct: host or cells: AT1R-CHO (CHO stably transfected with human AT1R-Rluc8), transient transfection; untagged clone in pCMV6
T1 sequence (Q61490 28-583): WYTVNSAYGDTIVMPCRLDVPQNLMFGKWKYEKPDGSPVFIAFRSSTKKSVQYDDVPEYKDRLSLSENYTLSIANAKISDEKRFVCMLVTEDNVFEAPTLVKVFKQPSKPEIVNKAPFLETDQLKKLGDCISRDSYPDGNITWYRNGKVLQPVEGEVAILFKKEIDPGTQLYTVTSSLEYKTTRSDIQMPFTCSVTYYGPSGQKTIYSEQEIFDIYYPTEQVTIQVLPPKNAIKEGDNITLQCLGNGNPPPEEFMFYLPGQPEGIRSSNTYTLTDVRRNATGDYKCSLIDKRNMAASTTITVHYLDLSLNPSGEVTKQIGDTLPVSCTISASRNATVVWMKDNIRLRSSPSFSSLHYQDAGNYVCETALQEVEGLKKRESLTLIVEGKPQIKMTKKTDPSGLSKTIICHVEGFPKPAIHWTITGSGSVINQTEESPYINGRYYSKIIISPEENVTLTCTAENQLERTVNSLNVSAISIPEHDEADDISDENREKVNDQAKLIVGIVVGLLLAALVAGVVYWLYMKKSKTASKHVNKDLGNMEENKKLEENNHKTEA
Nature of the experiment: S100A8/A9-induced PCNA expression in CHO cells transfected with full length murine ALCAM. The format is cell-based. Conditions: S100A8/A9 1 μM 2 h, co-transfection (FIG. 4A). Here is the method:
(§1) Adult retinal pigment epithelial (ARPE) cells were cultured in Dulbecco's modified Eagle's medium (DMEM)/F12 endothelial cell growth supplement (ECGS) supplemented media. Chinese Hamster Ovary (CHO) cells were cultured using F12 media (10% FCS with 2 mM glutamine). Human microvascular endothelial cells (HMEC) were cultured in MCDB 131 medium (10% FCS with 10 mM glutamine, EGF and hydrocortisone).
(§2) Oligonucleotides were designed and ordered to generate the ALCAM, BCAM and MCAM intracellular (cytosolic) domains. These included a 5′ NheI site, Kozak sequence and initiating Methionine and then DNA sequences corresponding to ALCAM residues 552-583, BCAM residues 569-628 and MCAM residues 584-637 respectively (Note that as residue 551 of ALCAM is Methionine, the cytosolic tail of ALCAM effectively corresponded to residues 551-583). The pCIneo parental vector was digested with NheI and NotI restriction enzymes, and the DNA of the fragments of the ALCAM, BCAM and MCAM tails/cytosolic domains were ligated into the digested plasmid. […]
[…] Changes in the gene expression of the NFκB subunit, p65 (RelA) or NFκB-activated target genes (e.g ICAM-1) were estimated by quantitative real-time RT-PCR, performed using the TaqMan system based on real-time detection of accumulated fluorescence (ABI Prism 7700, Perkin-Elmer Inc, PE Biosystems, Foster City, Calif., USA). […]

In experiment [2] the target is T1, full length murine ALCAM1-583. Nature of the experiment: Ang II-induced p65/PCNA expression in AT1R-CHO cells transfected with full length murine ALCAM (qRT-PCR). The format is cell-based. On the procedure: as §1
(§3) 100 ng of AT1R-Rluc8 construct was transfected into CHO cells using Lipofectamine 2000 (Thermo). Stable transfectants were selected using G418. AT1R-CHO were then transiently transfected with the IgSF CAM and/or RAGE constructs using Lipofectamine 2000 (Invitrogen) and incubated for 16h.
as §2, with “plasmid. After transformation and recovery, colonies were screened and individual clones sequenced. The sequence of the insert was confirmed by DNA sequencing (Micromon, Monash University). A full-length clone of Mouse ALCAM (BC027280) was purchased from Origene. The untagged clone was supplied in the vector pCMV6.” for “plasmid.”
(§4) After 2 hours of exposure to Ang II (1 μM) cells were placed in Trizol, mRNA extracted and cDNA synthesized. Changes in the gene expression of the NFκB subunit, p65 (RelA) or NFκB-activated target genes (e.g ICAM-1) were estimated by quantitative real-time RT-PCR, performed using the TaqMan system based on real-time detection of accumulated fluorescence (ABI Prism 7700, Perkin-Elmer Inc, PE Biosystems, Foster City, Calif., USA). […]
On the technique in general: In qPCR the cycle at which signal appears reflects the starting amount.

In experiment [3] the target is T2, cytosolic tail of MCAM, MCAM584-637 (Homo sapiens, UniProt P43121).
T2 sequence (P43121 with tags, fused parts or gaps): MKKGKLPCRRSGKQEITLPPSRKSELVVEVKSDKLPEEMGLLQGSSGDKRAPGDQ
Nature of the experiment: Ang II-induced p65 expression in AT1R-CHO cells transfected with cytosolic tail of MCAM. Type of experiment: cell-based. Details: corresponds to residues 584-637 of MCAM plus an initiating Methionine; initiating Methionine (N); expressed in transfected cells; host or cells: AT1R-CHO (CHO stably transfected with human AT1R-Rluc8); insert in pCIneo. Conditions: Ang II 1 μM, co-transfection (FIG. 3I). Here is the method:
as §1, §3
Oligonucleotides were designed and ordered to generate the ALCAM, BCAM and MCAM intracellular (cytosolic) domains. […]
as §4

The test system of experiment [4] is AT1R-CHO cells. Nature of the experiment: p65 expression in AT1R-CHO cells expressing the truncated construct alone. The format is cell-based, Chinese Hamster. The settings on record: AT1R-CHO cells, Ang II 1 μM (FIG. 3A, 5A, 5B). On the procedure:
as §1, §3
(§5) Oligonucleotides were designed and ordered to generate the ALCAM, BCAM and MCAM intracellular (cytosolic) domains. These included a 5′ NheI site, Kozak sequence and initiating Methionine and then DNA sequences corresponding to ALCAM residues 552-583, BCAM residues 569-628 and MCAM residues 584-637 respectively (Note that as residue 551 of ALCAM is Methionine, the cytosolic tail of ALCAM effectively corresponded to residues 551-583). The pCIneo parental vector was digested with NheI and NotI restriction enzymes, and the DNA of the fragments of the ALCAM, BCAM and MCAM tails/cytosolic domains were ligated into the digested plasmid. After transformation and recovery, colonies were screened and individual clones sequenced. The sequence of the insert was confirmed by DNA sequencing (Micromon, Monash University). A full-length clone of Mouse ALCAM (BC027280) was purchased from Origene. The untagged clone was supplied in the vector pCMV6. Overlapping DNA sequences were ordered to generate the ALCAM559-580 fragment oligonucleotide. These included a 5′ NheI site, Kozak sequence and initiating Methionine and then DNA sequences corresponding to ALCAM residues 559-580. The pCIneo parental vector was digested with NheI and NotI restriction enzymes, and the ALCAM559-580 construct DNA was ligated into the digested plasmid. After transformation and recovery, colonies were screened and individual clones sequenced.
(§6) After 2 hours of exposure to Ang II (1 μM) cells were placed in Trizol, mRNA extracted and cDNA synthesized. Changes in the gene expression of the NFκB subunit, p65 (RelA) or NFκB-activated target genes (e.g ICAM-1) were estimated by quantitative real-time RT-PCR, performed using the TaqMan system based on real-time detection of accumulated fluorescence (ABI Prism 7700, Perkin-Elmer Inc, PE Biosystems, Foster City, Calif., USA). Gene expression was normalized to 18S mRNA and reported as fold change compared to the level of expression in untreated control mice/cells, which were given an arbitrary value of 1.

Experiment [5] has as its system full length chicken EpCAM. The experiment is described as follows: Ang II-induced p65 expression in AT1R-CHO cells transfected with full length chicken EpCAM. Conditions: Ang II 1 μM, co-transfection (FIG. 3D). Type of experiment: cell-based. On the procedure: as §1, §3, §6
Experiment [6] concerns human ALCAM (ALCAM1-583, cytosolic tail ALCAM551-583). Nature of the experiment: Ang II-induced p65/PCNA expression in AT1R-CHO cells transfected with human ALCAM (full length or cytosolic tail). Type of experiment: cell-based. Conditions: Ang II 1 μM, co-transfection, text: cytosolic tail ALCAM551-583, legend: full length ALCAM1-583. On the procedure:
as §1, §3, §5, §6

Experiment [7] has as its target T3, human ALCAM (ALCAM1-583, cytosolic tail ALCAM551-583) (Homo sapiens, UniProt Q13740).
T3 construct: expressed in transfected cells; host or cells: AT1R-CHO (CHO stably transfected with human AT1R-Rluc8), transient transfection
T3 sequence (Q13740 551-583): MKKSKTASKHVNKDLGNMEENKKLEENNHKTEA
Described as above. The settings on record: Ang II 1 μM, co-transfection (FIG. 3G, 1E). Type of experiment: cell-based. On the procedure: as §1, §3, §5, §6

Sequence of full length chicken EpCAM (as listed by the source): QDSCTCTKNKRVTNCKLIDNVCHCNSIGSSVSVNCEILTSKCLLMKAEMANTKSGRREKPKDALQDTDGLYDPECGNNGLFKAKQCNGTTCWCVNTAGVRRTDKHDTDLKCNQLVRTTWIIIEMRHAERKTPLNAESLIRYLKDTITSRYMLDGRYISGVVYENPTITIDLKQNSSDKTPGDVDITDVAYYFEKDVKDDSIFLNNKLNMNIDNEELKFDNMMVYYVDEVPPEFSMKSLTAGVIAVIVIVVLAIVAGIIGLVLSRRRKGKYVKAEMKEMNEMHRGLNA

As for MKHVNKDLGNMEENKKLEENNHK [ALCAM559-580], in experiment [1], the “ligand-dependent signalling (PCNA expression) via murine ALCAM activated by S100A8/A9” value is given as “inhibited”. The “induction of p65-NFκB expression by Ang II via AT1R-dependent transactivation of full length murine ALCAM1-583” value in experiment [2] (Ang II 1 μM 2 h, co-transfection of the construct, vs pCIneo (FIG. 3B, 5B)) is given as “prevents induction”. Further, in experiment [2] (Ang II 1 μM, co-transfection (FIG. 3C)), the “p65-NFκB dependent induction of PCNA expression by Ang II via full length murine ALCAM1-583” value was “prevents induction”. Besides, the “induction of p65-NFκB expression by Ang II via transactivation of MCAM584-637” value in experiment [3] is recorded as “prevents induction”. The “induction of p65 expression by Ang II when the construct alone is expressed” value in experiment [4] is listed as “failed to increase the expression of p65”. Besides, in experiment [5], the “induction of p65-NFκB expression by Ang II via transactivation of full length chicken EpCAM” value is listed as “prevents induction”. Moreover, in experiment [6], the “induction of p65-NFκB expression by Ang II via transactivation of human ALCAM (FIG. 3E)” value was “prevents induction” and the “p65-NFκB dependent induction of PCNA expression by Ang II via human ALCAM (FIG. 3F)” value was “prevents induction”. Moreover, in experiment [7], the “induction of p65-NFκB expression by Ang II via transactivation of the cytosolic tail of human ALCAM, ALCAM551-583” value was “prevents induction”.

For the origin of these results see patent US20220169693A1, “Screening Assays, Modulators and Modulation of Intracellular Signalling Mediated by Immunoglobulin Superfamily Cell Adhesion Molecules” (Monash University, priority 2018, published 2022).
